Test results as given in paper PMC6785124, “Allosteric regulation of a prokaryotic small Ras-like GTPase contributes to cell polarity oscillations in bacterial motility” (PLoS Biology, 2019).
Each block holds one molecule with its values, some of them ahead of it.

Assays:
[1] = biological target: Myxococcus xanthus Mutual gliding motility A, MxMglA(His6) (Myxococcus xanthus) (UniProt Q1DB04); assay: fluorescence polarisation; fluorescence anisotropy of 400 nM mant-GppNHp (m-GNP) mixed with 2 μM MxMglA or its mutant, titrated with MxMglB or MxMglB^ΔCt (concentration as MglB dimer); one site-specific binding fit
[2] = biological target: T1, Myxococcus xanthus Mutual gliding motility A, MxMglA(His6) (Myxococcus xanthus, UniProt Q1DB04 1-195); assay: fluorescence polarisation; fluorescence anisotropy of 400 nM mant-GDP (m-GDP) mixed with 2 μM MxMglA or its mutant, titrated with MxMglB or MxMglB^ΔCt (concentration as MglB dimer); one site-specific binding fit; conditions: both partners purified
T1 construct: MglA, small Ras-like GTPase of Myxococcus xanthus; gene mglA amplified from genomic DNA (DSMZ 16526) and cloned into pHis17 between NdeI and BamHI; In the assays it carried m-GDP, m-GNP (mant-GppNHp) or GTPγS; source: E. coli BL21-DE3, purified (HisTrap, Superdex75); not shown: His6, C-terminal, kept
T1 sequence: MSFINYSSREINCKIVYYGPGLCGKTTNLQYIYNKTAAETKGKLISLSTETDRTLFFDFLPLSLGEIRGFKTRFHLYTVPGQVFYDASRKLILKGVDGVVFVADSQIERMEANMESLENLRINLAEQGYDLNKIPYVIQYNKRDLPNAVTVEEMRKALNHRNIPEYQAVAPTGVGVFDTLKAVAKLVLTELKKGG

[3] = biological target: T2, MxMglA^K, MxMglA K181A and K185A double mutant (Myxococcus xanthus, UniProt Q1DB04 1-195, K181A | K185A); assay: fluorescence polarisation; fluorescence anisotropy of 400 nM mant-GppNHp (m-GNP) mixed with 2 μM MxMglA or its mutant, titrated with MxMglB or MxMglB^ΔCt (concentration as MglB dimer); one site-specific binding fit; conditions: both partners purified
T2 construct: Mutant of m1; source: E. coli BL21-DE3, purified (protocol similar to MxMglA(His6))
T2 sequence: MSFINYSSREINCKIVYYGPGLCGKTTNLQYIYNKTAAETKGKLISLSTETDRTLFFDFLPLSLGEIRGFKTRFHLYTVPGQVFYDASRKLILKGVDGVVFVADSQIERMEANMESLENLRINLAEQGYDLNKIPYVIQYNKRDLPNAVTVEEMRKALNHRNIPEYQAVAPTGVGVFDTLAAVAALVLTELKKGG

[4] = biological target: T1, Myxococcus xanthus Mutual gliding …; assay: as above; conditions: both partners purified
[5] = biological target: T3, MxMglA^L, MxMglA L64A and I67A double mutant (Myxococcus xanthus, UniProt Q1DB04 1-195, L64A | I67A); assay: as above; conditions: both partners purified
T3 construct: MglA of Myxococcus xanthus with L64A and I67A (β2-β3 loop, interswitch region); Mutant of m1; source: E. coli BL21-DE3, purified (protocol similar to MxMglA(His6))
T3 sequence: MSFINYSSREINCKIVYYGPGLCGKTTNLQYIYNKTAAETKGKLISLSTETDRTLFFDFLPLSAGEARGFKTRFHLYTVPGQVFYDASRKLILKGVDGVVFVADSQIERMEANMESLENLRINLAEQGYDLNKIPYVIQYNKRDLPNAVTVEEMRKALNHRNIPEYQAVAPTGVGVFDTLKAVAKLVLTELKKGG

[6] = biological target: T4, MxMglA^Q82L, active site mutant of MxMglA (Myxococcus xanthus, UniProt Q1DB04 1-195, Q82L); assay: as above; conditions: both partners purified
T4 construct: MglA of Myxococcus xanthus with Q82L (active site); Mutant of m1; source: E. coli BL21-DE3, purified (protocol similar to MxMglA(His6))
T4 sequence: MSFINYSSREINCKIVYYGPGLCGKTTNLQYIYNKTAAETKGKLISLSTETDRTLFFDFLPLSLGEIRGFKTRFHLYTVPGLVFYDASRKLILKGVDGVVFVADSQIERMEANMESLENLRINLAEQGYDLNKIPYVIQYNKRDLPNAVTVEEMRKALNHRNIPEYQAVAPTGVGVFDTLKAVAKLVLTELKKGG

[7] = biological target: T5, Myxococcus xanthus Mutual gliding motility B, full-length MxMglB(His6) (Myxococcus xanthus), Q1DB03; assay: crystal structure; MxMglA and MxMglB mixed 1:1 (MglB as monomer), 4 mg/ml each, in A50 buffer with 5 mM MgCl2 and 2 mM GTPγS; PEG 4000 or PEG 3350 with 200 mM ammonium sulphate; conditions: remark: other sources report otherwise
T5 chain: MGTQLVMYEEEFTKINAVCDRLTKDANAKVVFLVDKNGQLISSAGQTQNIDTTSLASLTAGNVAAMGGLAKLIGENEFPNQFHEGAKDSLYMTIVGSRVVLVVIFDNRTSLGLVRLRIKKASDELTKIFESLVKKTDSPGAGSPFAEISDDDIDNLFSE

[8] = biological target: T1, Myxococcus xanthus Mutual gliding …; assay: as above; conditions: both partners purified

Molecule: MxMglB^ΔCt(His6), truncated MxMglB lacking the C-terminal helix (domain or fragment)
Kd [1]: 290 nM

B1: Myxococcus xanthus Mutual gliding motility B, full-length MxMglB(His6) (natural protein, UniProt Q1DB03 1-159, looked up)
chain: MGTQLVMYEEEFTKINAVCDRLTKDANAKVVFLVDKNGQLISSAGQTQNIDTTSLASLTAGNVAAMGGLAKLIGENEFPNQFHEGAKDSLYMTIVGSRVVLVVIFDNRTSLGLVRLRIKKASDELTKIFESLVKKTDSPGAGSPFAEISDDDIDNLFSE
notes: Rbl/LC7 core residues 10-131, Ct-helix residues 147-157; also called MglB1 and MglB2 (the two protomers in the crystal); source: E. coli BL21-AI, purified (HisTrap, Superdex75); not shown: His6, C-terminal, kept
Kd [2]: 120 ± 30 nM
binding result [3]: binds
Kd [4]: 100 ± 40 nM
binding result [5]: binds
binding result [6]: binds
stoichiometry N [7]: 2

Now from value to molecule:

binding result [8]: binds
B2: selenomethionine-labeled MxMglB^I148M (natural protein, Myxococcus xanthus)
chain: MGTQLVMYEEEFTKINAVCDRLTKDANAKVVFLVDKNGQLISSAGQTQNIDTTSLASLTAGNVAAMGGLAKLIGENEFPNQFHEGAKDSLYMTIVGSRVVLVVIFDNRTSLGLVRLRIKKASDELTKIFESLVKKTDSPGAGSPFAEMSDDDIDNLFSE
modifications: selenomethionine-labeled
notes: MglB of Myxococcus xanthus with Ile148 mutated to methionine; construct without histidine tag; Made to confirm the registry of the Ct-helix; Probably a point mutant of full-length MglB

binding result [8]: binds
B3: selenomethionine-labeled MxMglB^L156M (natural protein, Myxococcus xanthus)
chain: MGTQLVMYEEEFTKINAVCDRLTKDANAKVVFLVDKNGQLISSAGQTQNIDTTSLASLTAGNVAAMGGLAKLIGENEFPNQFHEGAKDSLYMTIVGSRVVLVVIFDNRTSLGLVRLRIKKASDELTKIFESLVKKTDSPGAGSPFAEISDDDIDNMFSE
modifications: selenomethionine-labeled
notes: MglB of Myxococcus xanthus with Leu156 mutated to methionine; construct without histidine tag; Made to confirm the registry of the Ct-helix; Probably a point mutant of full-length MglB
